Here are results for one substance from PMC1570500.

This assay concerns the target syntaxin 1 (rat (endogenous in PC12)) (UniProt P32851). Put plainly: immunostaining of cells or tissue; PC12 membrane sheets incubated in buffer at 37 °C for increasing periods before fixation, immunostained for Munc18–1; no re-binding (large volume of buffer); trace fitted to a double-exponential decay.
UniProt P32851, sequence (P32851 whole entry): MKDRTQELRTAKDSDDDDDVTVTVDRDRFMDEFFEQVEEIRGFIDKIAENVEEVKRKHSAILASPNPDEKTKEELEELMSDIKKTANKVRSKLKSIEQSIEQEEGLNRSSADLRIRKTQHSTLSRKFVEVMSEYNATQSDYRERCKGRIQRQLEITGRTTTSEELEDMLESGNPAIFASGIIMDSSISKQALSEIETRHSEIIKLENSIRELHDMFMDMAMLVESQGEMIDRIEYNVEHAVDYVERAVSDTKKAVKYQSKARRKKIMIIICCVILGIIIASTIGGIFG

For “Munc18–1 (from UniProt P61765 1-594) (natural protein)”, the half-time of dissociation from the membrane, fast component of a double-exponential decay was 5 s and the half-time of dissociation from the membrane, slow component of a double-exponential decay is 1000 s.
